Four molecules from publication PMC6711705, “Tailored tetravalent antibodies potently and specifically activate Wnt/Frizzled pathways in cells, organoids and mice” (eLife, 2019) can be followed below.

Where two headings read alike, the source gives them in different places.

The target of one experiment is T1, Fc-tagged FZD1 CRD (Homo sapiens, UniProt Q9UP38).
T1 construct: Frizzled-1, human, cysteine rich domain (CRD); also called FZD1-Fc; source: bought: R and D Systems
The experiment in a line: SPR; soluble F^P Fab or IgG injected over FZD-Fc immobilised on a GLC sensor by amine coupling; PBS, 0.05% Tween20, 0.5% BSA; 25 °C; 1:1 Langmuir model, global fit. The note with it: both partners purified.

Experiment [1] has as its target T2, Fc-tagged FZD2 CRD (Homo sapiens, UniProt Q14332).
T2 construct: Frizzled-2, human, cysteine rich domain (CRD); also called FZD2-Fc; source: bought: R and D Systems
Described as above. The note with it: both partners purified.

In experiment [2] the target is T3, Fc-tagged FZD4 CRD (Homo sapiens, UniProt Q9ULV1).
T3 construct: Frizzled-4, human, cysteine rich domain (CRD); also called FZD4-Fc; source: bought: R and D Systems
Described as above. The note with it: both partners purified.

The target in experiment [3] is T4, Fc-tagged FZD7 CRD (Homo sapiens, UniProt O75084).
T4 construct: Frizzled-7, human, cysteine rich domain (CRD); also called FZD7-Fc; source: bought: R and D Systems
Described as above. The note with it: both partners purified.

In experiment [4] the target is T3, Fc-tagged FZD4 CRD.
Target sequence in this assay (Q9ULV1 40-161): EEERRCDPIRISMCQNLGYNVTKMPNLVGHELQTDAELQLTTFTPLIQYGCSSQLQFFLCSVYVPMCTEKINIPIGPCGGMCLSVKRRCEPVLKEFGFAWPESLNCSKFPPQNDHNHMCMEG
Experiment [5] deals with T2, Fc-tagged FZD2 CRD.
For experiment [6], the target named is T4, Fc-tagged FZD7 CRD.

B1: F^P Fab (Fab, V domains shown)
VH: EVQLVESGGGLVQPGGSLRLSCAASGFNIGSSSIHWVRQAPGKGLEWVASIYSAFASTSYADSVKGRFTISADTSKNTAYLQMNSLRAEDTAVYYCARYHFPFGFALDYWGQGTLVTVSS
VL: DIQMTQSPSSLSASVGDRVTITCRASQSVSSAVAWYQQKPGKAPKLLIYSASSLYSGVPSRFSGSRSGTDFTLTISSLQPEDFATYYCQQGVYLFTFGQGTKVEIK
notes: VH as the F^P VH of m1; constant part of the Fab heavy chain; the Fab construct is not described; VL as the F^P VL of m1; constant part of the Fab light chain; Parent paratope of the N-terminal diabody of m1; also called pan-FZD Ab (F^P); source: Expi293F, transient transfection, purified (rProtein A Sepharose)
For the molecule B1, the binding result with Fc-tagged FZD1 CRD, with Fc-tagged FZD2 CRD [1], in the experiment with Fc-tagged FZD4 CRD [2] and with Fc-tagged FZD7 CRD [3] was “binds” in each case.

B2: FLAg 4+4 (anti-FZD4 paratope) (antibody, V domains shown)
VH: EVQLVESGGGLVQPGGSLRLSCAASGFNSSFYFMHWVRQAPGKGLEWVATVYPYLDYTYYADSVKGRFTISADTSKNTAYLQMNSLRAEDTAVYYCARAFPGSYHPMDYWGQGTLVTVSS
VL: DIQMTQSPSSLSASVGDRVTITCRASQSVSSAVAWYQQKPGKAPKLLIYSASSLYSGVPSRFSGSRSGTDFTLTISSLQPEDFATYYCQQSSYSLITFGQGTKVEIK
In the case of B2, the binding result in the experiment with Fc-tagged FZD4 CRD [4] was “binds”.

B3: FLAg 2+2 (anti-FZD2 paratope) (antibody, V domains shown)
VH: EVQLVESGGGLVQPGGSLRLSCAASGFNIYYSSIHWVRQAPGKGLEWVASIYPYYGYTYYADSVKGRFTISADTSKNTAYLQMNSLRAEDTAVYYCARYYHYGLDYWGQGTLVTVSS
VL: DIQMTQSPSSLSASVGDRVTITCRASQSVSSAVAWYQQKPGKAPKLLIYSASSLYSGVPSRFSGSRSGTDFTLTISSLQPEDFATYYCQQSYWHSYLITFGQGTKVEIK
B3: in the experiment with Fc-tagged FZD2 CRD [5], the binding result was “binds”.

B4: FLAg 7+7 (anti-FZD7 paratope) (antibody, V domains shown)
VH: EVQLVESGGGLVQPGGSLRLSCAASGFNISSSSMHWVRQAPGKGLEWVASIYSYYGSTYYADSVKGRFTISADTSKNTAYLQMNSLRAEDTAVYYCARWYGMDYWGQGTLVTVSS
VL: DIQMTQSPSSLSASVGDRVTITCRASQSVSSAVAWYQQKPGKAPKLLIYSASSLYSGVPSRFSGSRSGTDFTLTISSLQPEDFATYYCQQPGSWYFPPITFGQGTKVEIK
For the molecule B4, the binding result in the experiment with Fc-tagged FZD7 CRD [6] was “binds”.
